Experimental data published in patent publication US20250304650A1.

Target: feline FcRn (FCN-F82W3, Acrobiosystems) (feline)
Assay: SPR Carterra, IgG coupled, pH 6.0

Binder	Kd	koff	kon
anti-NGF feline IgG1a, Fc variant S428L, D312T (antibody, part only; not given: anti-NGF variable domains, not shown: another chain or arm of the molecule; small tags and cut ends) Fc: PPEMLGGPSIFIFPPKPKDTLSISRTPEVTCLVVDLGPDDSDVQITWFVDNTQVYTAKTSPREEQFNSTYRVVSVLPILHQTWLKGKEFKCKVNSKSLPSPIERTISKAKGQPHEPQVYVLPPAQEELSRNKVSVTCLIKSFHPPDIAVEWEITGQPEPENNYRTTPPQLDSDGTYFVYSKLSVDRSHWQRGNTYTCSVLHEALHSHHTQKSLTQSPGK	11.2 nM	0.0113 s⁻¹	1.01e+06 M⁻¹ s⁻¹
anti-NGF feline IgG1a, Fc variant S428L, I377V (antibody, part only; not given: anti-NGF variable domains, not shown: another chain or arm of the molecule; small tags and cut ends) Fc: PPEMLGGPSIFIFPPKPKDTLSISRTPEVTCLVVDLGPDDSDVQITWFVDNTQVYTAKTSPREEQFNSTYRVVSVLPILHQDWLKGKEFKCKVNSKSLPSPIERTISKAKGQPHEPQVYVLPPAQEELSRNKVSVTCLIKSFHPPDVAVEWEITGQPEPENNYRTTPPQLDSDGTYFVYSKLSVDRSHWQRGNTYTCSVLHEALHSHHTQKSLTQSPGK	10.8 nM	0.0183 s⁻¹	1.69e+06 M⁻¹ s⁻¹
anti-NGF feline IgG1a, Fc variant S428L, Q311K (antibody, part only; not given: anti-NGF variable domains, light chain, not shown: another chain or arm of the molecule; small tags and cut ends) Fc: PPEMLGGPSIFIFPPKPKDTLSISRTPEVTCLVVDLGPDDSDVQITWFVDNTQVYTAKTSPREEQFNSTYRVVSVLPILHKDWLKGKEFKCKVNSKSLPSPIERTISKAKGQPHEPQVYVLPPAQEELSRNKVSVTCLIKSFHPPDIAVEWEITGQPEPENNYRTTPPQLDSDGTYFVYSKLSVDRSHWQRGNTYTCSVLHEALHSHHTQKSLTQSPGK	10.5 nM	0.0101 s⁻¹	958000 M⁻¹ s⁻¹
anti-NGF feline IgG1a, Fc variant S428L, I383L (antibody, part only; not given: anti-NGF variable domains, light chain, not shown: another chain or arm of the molecule; small tags and cut ends) Fc: PPEMLGGPSIFIFPPKPKDTLSISRTPEVTCLVVDLGPDDSDVQITWFVDNTQVYTAKTSPREEQFNSTYRVVSVLPILHQDWLKGKEFKCKVNSKSLPSPIERTISKAKGQPHEPQVYVLPPAQEELSRNKVSVTCLIKSFHPPDIAVEWELTGQPEPENNYRTTPPQLDSDGTYFVYSKLSVDRSHWQRGNTYTCSVLHEALHSHHTQKSLTQSPGK	9.9 nM	0.0162 s⁻¹	1.63e+06 M⁻¹ s⁻¹
anti-NGF feline IgG1a, Fc variant S428L, Q311V (antibody, part only; not given: Anti-NGF variable domains, not shown: another chain or arm of the molecule; small tags and cut ends) Fc: PPEMLGGPSIFIFPPKPKDTLSISRTPEVTCLVVDLGPDDSDVQITWFVDNTQVYTAKTSPREEQFNSTYRVVSVLPILHVDWLKGKEFKCKVNSKSLPSPIERTISKAKGQPHEPQVYVLPPAQEELSRNKVSVTCLIKSFHPPDIAVEWEITGQPEPENNYRTTPPQLDSDGTYFVYSKLSVDRSHWQRGNTYTCSVLHEALHSHHTQKSLTQSPGK	11.7 nM	0.0107 s⁻¹	916000 M⁻¹ s⁻¹

Binders with a lower Kd, results first:

Kd	koff	kon	Binder
8.6 nM	0.00987 s⁻¹	1.15e+06 M⁻¹ s⁻¹	anti-NGF feline IgG1a, Fc variant S428L, T286E (antibody, part only; not given: anti-NGF variable domains, not shown: another chain or arm of the molecule; small tags and cut ends) Fc: PPEMLGGPSIFIFPPKPKDTLSISRTPEVTCLVVDLGPDDSDVQITWFVDNTQVYEAKTSPREEQFNSTYRVVSVLPILHQDWLKGKEFKCKVNSKSLPSPIERTISKAKGQPHEPQVYVLPPAQEELSRNKVSVTCLIKSFHPPDIAVEWEITGQPEPENNYRTTPPQLDSDGTYFVYSKLSVDRSHWQRGNTYTCSVLHEALHSHHTQKSLTQSPGK
8 nM	0.00973 s⁻¹	1.22e+06 M⁻¹ s⁻¹	anti-NGF feline IgG1a, Fc variant S428L, E380D, S434R (antibody, part only; not given: Anti-NGF variable domains, not shown: another chain or arm of the molecule; small tags and cut ends) Fc: PPEMLGGPSIFIFPPKPKDTLSISRTPEVTCLVVDLGPDDSDVQITWFVDNTQVYTAKTSPREEQFNSTYRVVSVLPILHQDWLKGKEFKCKVNSKSLPSPIERTISKAKGQPHEPQVYVLPPAQEELSRNKVSVTCLIKSFHPPDIAVDWEITGQPEPENNYRTTPPQLDSDGTYFVYSKLSVDRSHWQRGNTYTCSVLHEALHRHHTQKSLTQSPGK
9.6 nM	0.0109 s⁻¹	1.14e+06 M⁻¹ s⁻¹	anti-NGF feline IgG1a, Fc variant S428L, N389c-R (antibody, part only; not given: anti-NGF variable domains, light chain, not shown: another chain or arm of the molecule; small tags and cut ends) Fc: PPEMLGGPSIFIFPPKPKDTLSISRTPEVTCLVVDLGPDDSDVQITWFVDNTQVYTAKTSPREEQFNSTYRVVSVLPILHQDWLKGKEFKCKVNSKSLPSPIERTISKAKGQPHEPQVYVLPPAQEELSRNKVSVTCLIKSFHPPDIAVEWEITGQPEPERNYRTTPPQLDSDGTYFVYSKLSVDRSHWQRGNTYTCSVLHEALHSHHTQKSLTQSPGK
